Experimental data from patent publication US20240092918A1 (Novartis, published 2024).

Assays:
[1] = biological target: T1, Human CCR7 (human, UniProt P32248 25-378); test: cell-based or functional assay
T1 sequence: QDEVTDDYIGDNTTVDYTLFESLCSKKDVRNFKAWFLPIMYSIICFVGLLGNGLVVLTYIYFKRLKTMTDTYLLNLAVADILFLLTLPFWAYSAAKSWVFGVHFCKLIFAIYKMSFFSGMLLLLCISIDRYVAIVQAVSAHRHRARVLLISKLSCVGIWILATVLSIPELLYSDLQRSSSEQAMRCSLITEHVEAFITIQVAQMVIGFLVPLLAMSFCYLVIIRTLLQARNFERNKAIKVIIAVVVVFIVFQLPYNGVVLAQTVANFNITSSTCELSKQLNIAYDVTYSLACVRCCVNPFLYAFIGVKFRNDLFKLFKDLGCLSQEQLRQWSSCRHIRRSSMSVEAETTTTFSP

[2] = biological target: T1, Human CCR7; test: cell-based or functional assay; remark: listed apart in the source
[3] = biological target: T1, Human CCR7; test: FACS binding assay
[4] = biological target: T1, Human CCR7; test: cell-based or functional assay; remark: listed apart in the source
[5] = biological target: T1, Human CCR7; test: cell-based or functional assay; remark: listed apart in the source

B1: 506E15 Parental (antibody, V domains shown)
VH: EVMLVESGGGLVKPGGSLKLSCAASGFTFSSYAMSWIRQTPEKRLEWVATISSGGSFTYYPDSVKGRFTISRDNVKNTLYLQMSSLRSEDTAMYYCARRASTVVGTDFDVWGAGTTVTVSS
VL: DIQMTQSPSSLSASLGERVSLTCRASQDIGSSLNWLQQEPDGTIKRLIYATSSLDSGVPKRFSGSRSGSDYSLTISSLESEDFVVYYCLQYASSPPTFGGGTKLEIK
506E15 IC50 (nM); ADCC reporter assay, ALL-SIL cells (6,200 CCR7 receptors) [1]: 0.008 nM | 506E15 IC50 (nM); ADCC reporter assay, CMLT-1 cells (29,000 CCR7 receptors) [1]: 0.011 nM | 506E15 IC50 (nM); ADCC reporter assay, DEL cells (62,000 CCR7 receptors) [1]: 0.074 nM | 506E15 IC50 (nM); ADCC reporter assay, DND-41 cells (1,700 CCR7 receptors) [1]: 0.002 nM | 506E15 IC50 (nM); ADCC reporter assay, JVM2 cells (66,500 CCR7 receptors) [1]: 0.046 nM | 506E15 IC50 (nM); ADCC reporter assay, Jurkat V158 cells (3,400 CCR7 receptors) [1]: 0.004 nM | 506E15 IC50 (nM); ADCC reporter assay, MOTN-1 cells (64,600 CCR7 receptors) [1]: 0.077 nM | 506E15 IC50 (nM); ADCC reporter assay, PEER cells (8,700 CCR7 receptors) [1]: 0.038 nM | 506E15 IC50 (nM); ADCC reporter assay, SR786 cells (27,800 CCR7 receptors) [1]: 0.011 nM

B2: 506E15 non-humanized CysMab (antibody, human IgG1, kappa, V domains shown)
VH: EVMLVESGGGLVKPGGSLKLSCAASGFTFSSYAMSWIRQTPEKRLEWVATISSGGSFTYYPDSVKGRFTISRDNVKNTLYLQMSSLRSEDTAMYYCARRASTVVGTDFDVWGAGTTVTVSS
VL: DIQMTQSPSSLSASLGERVSLTCRASQDIGSSLNWLQQEPDGTIKRLIYATSSLDSGVPKRFSGSRSGSDYSLTISSLESEDFVVYYCLQYASSPPTFGGGTKLEIKR
ADCC activity; IC50 (nM); surrogate ADCC reporter assay, JVM2 target cells and Jurkat-V158 effector cells [2]: 0.131 nM

B3: 674J13.CysMab.DAPA.AURIX2 (antibody, human IgG1, kappa, V domains shown)
VH: DVQLQESGPGLVKPSQTLSLTCTVSGYSITSGYSWHWIRQHPGKGLEWMAHIHSSGSTNYNPSLKSRITISRDTSKNQFSLKLSSVTAADTAVYYCARGGVQAFAYWGQGTLVTVSS
VL: EIVLTQSPATLSASPGERVTMSCSASSSVIYMHWYQQKPGQAPRRWIYDTSKLASGVPARFSGSGSGTDYTLTISSMEPEDAAVYYCQQWSSNPLTFGQGTKLEIKR
modifications: DAR LC 0.03; AURIX2 on the engineered cysteines; DAR HC 3.93
notes: also called 674J13.DAPA.AURIX2
geometric mean fluorescence intensity, difference from the unconjugated antibody [3]: ≤ 20% | ADC activity in cell viability assay; IC50 (nM); CML-T1 cells (~29,000 CCR7 receptors) [4]: 3.78 nM | ADC activity in cell viability assay; IC50 (nM); DEL cells (~100,000 CCR7 receptors) [4]: 0.242 nM | ADC activity in cell viability assay; IC50 (nM); KE97 cells (~100,000 CCR7 receptors) [4]: 0.102 nM | ADC activity in cell viability assay; IC50 (nM); SR786 cells (~28,000 CCR7 receptors) [4]: 2.74 nM

B4: 506E15 (Humanized CysMab DAPA) (antibody, human IgG1, kappa, V domains shown)
VH: EVQLVESGGGLVKPGGSLRLSCAASGFTFSSYAMSWIRQAPGKGLEWVATISSGGSFTYYPDSVKGRFTISRDNAKNSLYLQMNSLRAEDTAVYYCARRASTVVGTDFDVWGQGTTVTVSS
VL: DIQMTQSPSSLSASVGDRVTLTCRASQDIGSSLNWLQQKPGKAIKRLIYATSSLDSGVPSRFSGSRSGTDYTLTISSLQPEDFVVYYCLQYASSPPTFGGGTKLEIKR
pHrodo (6 h MFI), uptake of pHrodo-labelled antibody at 5 ug/ml, CD4+ T cells (2000 receptors) [5]: 429 MFI | pHrodo (6 h MFI), uptake of pHrodo-labelled antibody at 5 ug/ml, CMLT1 cells (19583 receptors) [5]: 465 MFI | pHrodo (6 h MFI), uptake of pHrodo-labelled antibody at 5 ug/ml, DEL cells (110685 receptors) [5]: 3060 MFI | pHrodo (6 h MFI), uptake of pHrodo-labelled antibody at 5 ug/ml, JVM3 cells (8717 receptors) [5]: 238 MFI | pHrodo (6 h MFI), uptake of pHrodo-labelled antibody at 5 ug/ml, Jeko-1 cells (28852 receptors) [5]: 908 MFI | pHrodo (6 h MFI), uptake of pHrodo-labelled antibody at 5 ug/ml, KE97 cells (152093 receptors) [5]: 2720 MFI | pHrodo (6 h MFI), uptake of pHrodo-labelled antibody at 5 ug/ml, L540 cells (167549 receptors) [5]: 16100 MFI | pHrodo (6 h MFI), uptake of pHrodo-labelled antibody at 5 ug/ml, L1236 cells (61602 receptors) [5]: 3130 MFI | pHrodo (6 h MFI), uptake of pHrodo-labelled antibody at 5 ug/ml, MJ cells (111121 receptors) [5]: 3870 MFI | pHrodo (6 h MFI), uptake of pHrodo-labelled antibody at 5 ug/ml, MOTN1 cells (84200 receptors) [5]: 2900 MFI | pHrodo (6 h MFI), uptake of pHrodo-labelled antibody at 5 ug/ml, Mec2 cells (50840 receptors) [5]: 3090 MFI

B5: 506E15 humanized CysMab (Fc Wild Type) (antibody, human IgG1, V domains shown)
VH: EVQLVESGGGLVKPGGSLRLSCAASGFTFSSYAMSWIRQAPGKGLEWVATISSGGSFTYYPDSVKGRFTISRDNAKNSLYLQMNSLRAEDTAVYYCARRASTVVGTDFDVWGQGTTVTVSS
VL: DIQMTQSPSSLSASVGDRVTLTCRASQDIGSSLNWLQQKPGKAIKRLIYATSSLDSGVPSRFSGSRSGTDYTLTISSLQPEDFVVYYCLQYASSPPTFGGGTKLEIK
ADCC activity; IC50 (nM); surrogate ADCC reporter assay, JVM2 target cells and Jurkat-V158 effector cells [2]: 0.054 nM

B6: 506E15.CysMab.DAPA.AURIX2 (antibody, human IgG1, kappa, V domains shown)
VH: EVQLVESGGGLVKPGGSLRLSCAASGFTFSSYAMSWIRQAPGKGLEWVATISSGGSFTYYPDSVKGRFTISRDNAKNSLYLQMNSLRAEDTAVYYCARRASTVVGTDFDVWGQGTTVTVSS
VL: DIQMTQSPSSLSASVGDRVTLTCRASQDIGSSLNWLQQKPGKAIKRLIYATSSLDSGVPSRFSGSRSGTDYTLTISSLQPEDFVVYYCLQYASSPPTFGGGTKLEIKR
modifications: AURIX2 on the engineered cysteines; DAR 3.80
notes: also called 506E15.DAPA.AURIX2
geometric mean fluorescence intensity, difference from the unconjugated antibody [3]: ≤ 20%
